PMC4423116, “Tarantula toxins use common surfaces for interacting with Kv and ASIC ion channels” (eLife, 2015)

What was measured:
Kv2.1 channel = molecular target: T1, Kv2.1 channel (Rattus norvegicus, UniProt P15387); experiment: Inhibition of Kv2.1 channel currents in Xenopus oocytes (two-electrode voltage clamp), apparent affinity; assay type: cell-based
T1 construct: expressed in transfected cells; host or cells: Xenopus laevis oocytes, cRNA injection
T1 sequence (P15387 1-857): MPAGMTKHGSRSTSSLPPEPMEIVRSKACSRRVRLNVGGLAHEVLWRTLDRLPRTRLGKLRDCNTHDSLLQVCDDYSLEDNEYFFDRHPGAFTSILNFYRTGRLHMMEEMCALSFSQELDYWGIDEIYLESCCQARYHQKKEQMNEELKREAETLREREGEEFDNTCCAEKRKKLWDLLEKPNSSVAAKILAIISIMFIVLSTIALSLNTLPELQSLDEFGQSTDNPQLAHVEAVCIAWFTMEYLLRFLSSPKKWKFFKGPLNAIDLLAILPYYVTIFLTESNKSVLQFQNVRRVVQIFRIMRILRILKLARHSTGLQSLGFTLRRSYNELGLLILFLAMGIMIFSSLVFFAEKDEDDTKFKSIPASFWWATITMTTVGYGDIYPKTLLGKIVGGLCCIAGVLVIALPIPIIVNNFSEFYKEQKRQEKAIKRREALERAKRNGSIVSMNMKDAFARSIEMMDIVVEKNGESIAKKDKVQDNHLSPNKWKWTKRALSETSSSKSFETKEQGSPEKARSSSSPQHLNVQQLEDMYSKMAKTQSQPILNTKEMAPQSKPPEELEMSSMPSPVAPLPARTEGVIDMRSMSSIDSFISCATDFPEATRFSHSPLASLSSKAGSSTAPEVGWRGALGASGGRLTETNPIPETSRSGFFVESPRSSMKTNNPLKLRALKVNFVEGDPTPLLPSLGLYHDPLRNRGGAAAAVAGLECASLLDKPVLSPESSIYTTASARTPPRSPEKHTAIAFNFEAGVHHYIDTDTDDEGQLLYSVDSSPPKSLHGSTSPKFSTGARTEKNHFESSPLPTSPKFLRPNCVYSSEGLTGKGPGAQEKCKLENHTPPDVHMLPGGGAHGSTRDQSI

[1] = Acrylamide dequenching by lipid vesicles (quenching-enhanced fluorescence titration); assay type: physicochemical; conditions: LUVs POPC:POPG 1:1
Procedure: (§1) Protection of tryptophan fluorescence from acrylamide quenching was examined in the absence and presence of lipids (toxin: lipid = 1:500) by titration with increasing concentrations of acrylamide ([Milescu et al., 2007]). The Stern–Volmer quenching constant (KSV) was calculated based on the best fits of the following equation to the data: F0/F = 1 + KSV[Q], where F0 and F are fluorescence of the toxin in the absence and presence of acrylamide, and [Q] is the concentration of acrylamide. […] A solution containing ∼ 2 µM toxin and 0.3 M acrylamide was stirred continuously with addition of increasing concentrations of LUVs composed of 1:1 mixture of POPC and POPG. Fluorescence spectra (averaging three spectra) were recorded between 300 and 450 nm (5 nm band pass, 0° polarizer) using an excitation wavelength of 280 nm (5 nm band pass, 90° polarizer) (SPEX FluoroMax 3 spectrofluorometer) and corrected for vesicle scattering. For calculating mole–fraction partitioning coefficients (Kdx), the maximal fluorescence intensity (F at λmax) was measured and normalized to the zero lipid fluorescence intensity (F0). […]

[2] = Depth-dependent quenching of Trp fluorescence by brominated (diBr) phosphatidylcholines; assay type: physicochemical; conditions: 6,7-, 9,10- or 11,12-diBr PC : POPG 1:1 vesicles, 1.2 mM lipid
Procedure: For depth-dependent fluorescence quenching experiments with brominated lipids, LUVs contained a 1:1 molar ratio of POPG and POPC 6,7-, 9,10-, or 11,12-1-palmitoyl-2-stearoyl(dibromo)-sn-glycero-3-phosphocholine (diBr; Avanti Polar Lipids, Alabaster, AL). Fluorescence spectra were recorded between 300 and 450 nm using an excitation wavelength of 280 nm, corrected for vesicle scattering and normalized to the zero lipid fluorescence intensity.

Kv2.1-ASIC1a chimeras = experiment: Effect of PcTx1 on G-V relations of Kv2.1-ASIC1a chimeras in oocytes; assay type: cell-based; conditions: 5 µM PcTx1, extracellular application, external 50 mM KCl, n = 3
Source text: Chimeras were generated using sequential PCR with the Kv2.1∆7 channel ([Li-Smerin and Swartz, 1998]) as template. Primers encoding the 9-amino acid sequence of helix-5 from ASIC1a were utilized for overlap PCR. The DNA sequence of all constructs and mutants was confirmed by automated DNA sequencing. Complementary RNA (cRNA) was synthesized using T7 polymerase (mMessage mMachine kit; Ambion) after linearizing the DNA with appropriate restriction enzymes.
Oocytes from Xenopus laevis were removed surgically and incubated with agitation for 1 hr in a solution containing (in mM) 82.5 NaCl, 2.5 KCl, 1 MgCl2, 5 HEPES, pH 7.6 (with NaOH), and collagenase (2 mg/ml; Worthington Biochemical). Defolliculated oocytes were injected with cRNA encoding the Kv2.1 channel constructs and incubated at 17°C in a solution containing (in mM) 96 NaCl, 2 KCl, 1 MgCl2, 1.8 CaCl2, 5 HEPES, pH 7.6 with NaOH, and gentamicin (50 μg/ml, GIBCO-BRL), for 16–72 hr before electrophysiological recording. Oocyte membrane voltage was controlled using an OC-725C oocyte clamp (Warner Instruments). Data were filtered at 1 kHz and digitized at 10 kHz. Microelectrode resistances were 0.1–1 MΩ when filled with 3 M KCl. […] All experiments were performed at room temperature (∼22°C). Voltage-activations relationships in the absence and presence of different concentrations of the synthesized toxin were recorded. […]

[3] = Membrane partitioning into lipid vesicles detected with intrinsic Trp fluorescence (blue shift); assay type: physicochemical; conditions: lipid vesicles POPC:POPG 1:1
Procedure: Large unilamellar vesicles (LUVs) were prepared by drying the phospholipids from a chloroform solution under a nitrogen stream. The dried lipid film was rehydrated in buffer containing 10 mM HEPES, 1 mM EDTA, pH 7.6 (HEB). The resulting dispersions were extruded through 100 nm pore size polycarbonate filters (Millipore Corp.) till the solution became clear. All fluorescence measurements were performed in quartz cuvettes with 1 cm path length. Fluorescence spectra (averaging three spectra) were recorded between 300 and 450 nm (5 nm band pass, 0° polarizer) using an excitation wavelength of 280 nm (5 nm band pass, 90° polarizer) (SPEX FluoroMax 3 spectrofluorometer) and corrected for vesicle scattering. […] Mole-fraction partitioning coefficients (Kx) were calculated by measuring the fluorescence intensity (F) at 320 nm and normalizing to the zero lipid fluorescence intensity (F0) ([Ladokhin et al., 2000]; [Milescu et al., 2007]). Kx was calculated based on the best fits of the following equation to the data: F/F0(L) = 1 + (F/F0^max − 1)Kx[L]/([W] + Kx[L]), where F/F0(L) is the change in fluorescence intensity for a given concentration of lipid, F/F0^max is the maximum fluorescence increase at high lipid concentrations, [L] is the average available lipid concentration (60% of total lipid concentration) and [W] is the molar concentration of water (55.3 M).

ASIC1a = conditions: ref Chen et al., 2006; Dawson et al., 2012; cited from earlier work
Source text: PcTx1 also contains an Arg finger motif composed of R26, R27 and R28 that is required for […] of ASIC through interactions with channel residues situated in a crevice between subunits. In the case of voltage-sensor toxins such as hanatoxin and GxTx-1E, the S3b helix within the voltage-sensing domains of Kv channels co ...

[4] = Acrylamide quenching of Trp fluorescence (Stern-Volmer), protection by lipid vesicles; assay type: physicochemical; conditions: n = 3
Procedure: as §1

[5] = analysis of quenching profiles with brominated lipids; ref Phillips et al., 2005; Swartz, 2007; Jung et al., 2010; Mihailescu et al., 2014; cited from earlier work
Source text: The results thus far reveal that both classes of tarantula toxins interact quite favorably with lipid membranes. […] For example, the solvent accessible surface area for the hydrophobic surface of PcTx1 is 380 Å^2, which compares with a value of 703 Å^2 for GxTx-1E. In addition, the hydrophobic surfaces on the two toxins are situated on distinct surfaces (Figure 1D,E). These differences between PcTx1 an ...

CC(C)C[C@@H]1NC(=O)CNC(=O)[C@H](Cc2c[nH]c3ccccc23)NC(=O)[C@H](CCCCN)NC(=O)[C@@H]2CCCN2C(=O)[C@H](CO)NC(=O)[C@@H]2CSSC[C@@H]3NC(=O)[C@H](CCCCN)NC(=O)[C@H](Cc4c[nH]c5ccccc45)NC(=O)[C@H](Cc4c[nH]c5ccccc45)NC(=O)[C@H](Cc4ccccc4)NC(=O)CNC(=O)CNC(=O)[C@@H](NC(=O)[C@H](CCC(=O)O)NC(=O)CNC(=O)[C@@H](N)CCC(=O)O)CSSC[C@H](NC(=O)[C@H](CSSC[C@@H](C(=O)N[C@@H](CC(N)=O)C(=O)N[C@@H](Cc4ccccc4)C(=O)N4CCC[C@H]4C(=O)N[C@@H](C)C(=O)N4CCC[C@H]4C(=O)O)NC1=O)NC(=O)[C@H](C)NC(=O)[C@@H]1CCCN1C(=O)[C@H](CCCCN)NC(=O)CNC(=O)[C@H](CO)NC(=O)CNC3=O)C(=O)N1CCC[C@H]1C(=O)N[C@@H](CCCCN)C(=O)N[C@@H](Cc1ccc(O)cc1)C(=O)N[C@@H](C(C)C)C(=O)N2 [Nle35A]
∆∆G (perturbation energy) (Kv2.1 channel; from apparent Kd of mutant vs GxTx-1E(Nle), Kv2.1 in oocytes): 0.19 kcal/mol

PcTx1
Kdx (mole-fraction partitioning coefficient from acrylamide dequenching) ([1]; maximal fluorescence intensity vs available lipid, ∼2 µM toxin, acrylamide 0.2 M / 0.3 M (methods), mean ± SEM (n = 3)): (4.3 ± 0.6) × 10^6 | F/F0^max (dequenching function fit) ([1]; maximum fluorescence increase at highest lipid concentration, acrylamide present): 2.7 ± 0.08 | quenching of Trp fluorescence by brominated lipids (in words) [2]: very weak quenching | effect on activity of five Kv2.1-ASIC1a chimeras (G-V relations) (Kv2.1-ASIC1a chimeras): no discernible effect | maximal blue shift of Trp emission spectrum upon addition of lipid vesicles [3]: ~2 nm | affinity for ASIC1a (in words) (ASIC1a): nM affinity | effect on the Kv2.1 channel (G-V relation) (Kv2.1 channel; 5 µM PcTx1, oocytes, external solution 50 mM KCl, tail currents, n = 3): no effect | Ksv (Stern–Volmer constant), acrylamide quenching in aqueous solution ([4]; toxin ∼2 µM in solution, no lipid): 29.2 M⁻¹ | Ksv (Stern–Volmer constant), acrylamide quenching in presence of lipid vesicles ([4]; toxin ∼2 µM with 1.0 mM POPC:POPG 1:1 vesicles (toxin:lipid 1:500)): 11.2 M⁻¹

hanatoxin
position of Trp residues from the center of the bilayer [5]: 8–9 Å
